Measured values as given in patent US20240115742A1, “FLUORINATED FIBERS FOR MULTIMODAL 1H AND 19F MRI, ULTRASOUND, FLUORESCENCE DETECTION AND CONFORMATIONAL AND TEMPERATURE DETECTION BY 19F MRS” (New York University, priority 2022, published 2024).
“And” between values parts separate entries of the source, which are not always exact repeats. Identical values can stand only once. Square brackets hold non-standard residues; d marks the D form. Ends that are not written are not given here. LTF = trifluoroleucine

Assays:
[1] = Tube inversion concentration-temperature phase diagram; assay type: physicochemical; conditions: for solubility limit: 50 mM Tris, 500 mM NaCl, pH 8.0; for UCST: at solubility limit, extent of gelation η 0.5
Method: Tube Inversion Test. Immediately after concentration to 2 mM, the protein was incubated at 4° C. over the course of two weeks after aliquoting 150 μL into a 2 mL Eppendorf tube. The samples were visually assessed for gelation by inverting the tubes at 12-hour time intervals thereafter, with gelled samples not flowing upon inversion.
Gelation. To study the relative gelation of Q2 as compared to the previously reported coiled-coil hydrogel, Q, protein was successfully expressed (FIG. 24), purified (FIG. 25), and concentrated to 2 mM (1% w/v) in Tris buffer (50 mM Tris, 500 mM NaCl) at pH 8.0. Purity of the protein was measured to be >99% by SDS-PAGE (FIG. 26) and concentration was measured by BCA assay. Immediately following concentration, the gelation process of Q2 was studied using the microrheology assay described previously following incubation at 4° C. Separately, 150 μL samples were aliquoted for tube inversion tests performed after 2 weeks of incubation for visual assessment of gelation over time at 4° C. (FIG. 19a-d) and at concentrations from 1 mM to 3.5 mM with temperatures 5° C. to 25° C. using 0.5 mM and 5° C. step sizes, respectively, to create a matrix-based phase diagram (FIG. 19e). Temperature and concentration ranges were selected based on preliminary tube-inversion testing at high and low ends of the ranges.
Thermoresponsiveness and material strength. UCST behavior of protein hydrogels was assessed by testing […] samples via tube inversion in 2 mL microtubes after incubation for two weeks at various temperatures and concentrations. Temperature conditions were modulated in the range of 5-40° C. The concentration range was modified depending on if precipitation was visually noticeable in the microtube at an earlier concentration, indicating a solubility limit to our phase diagram, as has been done previously. […] As done with Q2, the UCST of the hydrogels was determined using a bivariate linear relationship for the extent of gelation where tubes that passed gelation by tube inversion were assigned a value of 1 (shown in black in FIG. 52a and FIG. 64a-d) and tubes that failed gelation by tube inversion (shown in red in FIG. 52a and FIG. 64a-d) were assigned a value of 0. The heatmap in FIG. 52a and FIG. 64a-d was used to denote the range of extent of gelation where the equation was employed to solve for the UCST using the solubility limit and solving for an extent of gelation, η, value of 0.5. The UCSTs (FIG. 52b) for the hydrogels studied here were 13.0° C., 35.9° C., 33.6° C., 17.5° C., and 22.9° C. for Q3-7, respectively, as compared to 17.0° C. for Q and 22.0° C. for Q2 found previously. Bivariate regression allowed for solving the coefficients for the dependence of temperature and concentration on gelation.
Tube Inversion. Binary sol-gel behavior was assessed using tube inversion. Immediately after concentration to 2 mM, 150 μL of Q hydrogel variants were incubated in 2 mL microtubes at 4° C. for two weeks. Gelation was visually observed by inverting the microtube and inspecting the sample for flow from the top of tube.

[2] = Parallel plate rheology; assay type: physicochemical; conditions: 10 Hz, 5% strain
Method: Rheology. Mechanical integrity of the Q2 hydrogel was assessed using a stress-controlled rheometer (Discovery Hybrid Rheometer 2, TA Instruments) equipped with a parallel plate geometry. After complete gelation of a 2 mM sample at 4° C., the sample was loaded onto the 8 mm diameter lower and upper plates with a 0.2 mm geometry gap. Strain and frequency settings were informed from previous Q hydrogel studies where the storage modulus (G′) and loss modulus (G″) were measured over the frequency range 0.1-10 Hz with a 5% oscillation strain.
Rheology. Q hydrogel variants were assessed for relative mechanical integrity with a stress-controlled rheometer (Discovery Hybrid Rheometer 2, TA Instruments) equipped with a parallel plate geometry. In parallel with microrheology measurements, 100 μL of each variant was incubated at 4° C. Upon gelation as assessed by microrheology, hydrogels were loaded onto an 8 mm diameter lower and upper plate with a 0.2 mm geometry gap. Storage modulus (G′) and loss modulus (G″) were measured from 0.1-10 Hz with 5% oscillation strain.

[3] = Confocal microscopy of CCM-bound fibers; assay type: physicochemical; conditions: for fiber diameter after CCM binding (confocal): 50 μM protein saturated with CCM, pH 4.0
Method: Confocal Microscopy. Protein bound to CCM was studied by measuring 50 μM protein samples saturated with CCM as determined by fluorescent spectroscopic drug binding with a final 1% v/v DMSO (or 2×Kd). 10 μL of protein was added to a micro slide and a 22×22 mm #1 microscope cover glass. Slides were inverted and imaged using a Leica TCS SP8 X Laser Confocal Microscope using a dry 10× objective at RT. CCM was excited using a 460 nm line of the laser, and images were taken using a 470 to 550 nm detection window.
Confocal Microscopy. Q2LTF was diluted to 50 μM and saturated with 40 μM of curcumin (solubilized in DMSO) as determined by the binding affinity in drug-binding experiments. […] 5 μL of sample was deposited onto a microslide and covered with a 22×22 mm #1 microscope cover glass. Images were taken with a Leica TCS SP8 X laser confocal microscope using a dry 10× objective at RT. Samples were excited at 460 nm and images were taken with a 470-550 nm detection window.

[4] = Fluorescence recovery after photobleaching (FRAP); conditions: one-phase association fit
Method: Protein fibrils are capable of blue autofluorescence as a result of protein self-assembly. Fluorescent recovery after photobleaching (FRAP) is measured by photobleaching using a 405 nm laser and measuring the spot intensity over time. This behavior was previously confirmed in the Q protein in a recent characterization. Using the correlation between autofluorescence and fibrilization, the relative autofluorescence of the coiled-coil protein hydrogels was measured. […] To assess the relative laser response, hydrogels were subjected to FRAP imaging using two 100% intensity bleaches at 405 nm excitation followed by imaging at 2 second frame intervals (FIG. 53c).
Confocal Imaging and Fluorescence Recovery After Photobleaching (FRAP). FRAP experiments were performed with a Stellaris 8 Falcon laser scanning confocal microscope on an inverted DMi8 CS stand equipped with 63X NA 1.4 lens. Images were taken with a laser at 405 nm excitation. A pre-bleach image was taken followed by two bleach images using 100% laser intensity for 1.5 s. Following, 41 images were taken post-bleach at 2 s intervals. To measure recovery, FIJI (version 2.3.0) was used to automate background and recovery imaging following photobleaching. Independent background intensities were fit to a one-phase decay equation in GraphPad Prism. Background loss, as a result of photobleaching, from fit values were added to spot intensity values before being fit to a one-phase association equation in GraphPad Prism.

Substance	solubility limit [1] [mM]	UCST [1] [°C]	storage modulus G′ [2]	fiber diameter after CCM binding (confocal) [3] [μm]	Halftime [4] [s]	K [4] [s⁻¹]	Tau [4] [s]	average fiber diameter after CCM binding (confocal) ([3]; 50 μM Q2LTF, 40 μM curcumin) [μm]	loss modulus G″ [2]
Q2: coiled-coil protein redesigned from Q for reduced lateral assembly, SEQ ID NO: 11 (MRGSHHHHHHGSIEGRVKELLFLKKTAEQMLEELKETNKALHDVRHLLENQSKL) [Protein Q2]	3.5	22.0	289.6±86.9 Pa	7.17±2.19	11.1	0.1	16.0		
Q2LTF: protein-engineered fluorinated coiled-coil fiber, Q2 with trifluoroleucine, SEQ ID NO: 20 (MRGSHHHHHHGSIEGRVKE[LTF][LTF]F[LTF]KKTAEQM[LTF]EE[LTF]KETNKA[LTF]HDVRH[LTF][LTF]ENQSK[LTF]; ends and bridges not checked) [Protein Q2LTF]								10.8±5.4	
Q3: Q variant with V44I pore mutation, SEQ ID NO: 12 (MRGSHHHHHHGSIEGRVKEILFLKNTAYQMLLELKETNEALYDIRHLLQQQSKL) [Protein Q3]		13.0	83±35 Pa and 82.5 ± 35.4 Pa	8.04±1.78	34.8	0.0	50.1		12±2 Pa and 12.3 ± 1.7 Pa
Q5: Q hydrogel variant from Rosetta Monte Carlo search, SEQ ID NO: 14 (MRGSHHHHHHGSIEGRVKEITFIKKTIEQIAEEMKEINKAIHDIRHALENISKK) [Protein Q5]	3.5	33.6	229±52 Pa and 228.7 ± 52.2 Pa		12.3	0.1	17.7		12±6 Pa and 11.8 ± 6.1 Pa
Q: rationally designed pentameric coiled-coil derived from C, SEQ ID NO: 23 (MRGSHHHHHHGSIEGRVKEITFLKNTAPQMLRELQETNAALQDVRELLRQQSKL) [reference compound]	3.5	17.0		14.74±5.501	9.9	0.1	14.3		
